Target: human TLR4 overexpressed in Panc-1 cells (Panc-1_TLR4^OE) (human, UniProt O00206 24-839)
Test: cell-based or functional assay

Sequence of human TLR4 overexpressed in Panc-1 cells (Panc-1_TLR4^OE) (O00206 24-839): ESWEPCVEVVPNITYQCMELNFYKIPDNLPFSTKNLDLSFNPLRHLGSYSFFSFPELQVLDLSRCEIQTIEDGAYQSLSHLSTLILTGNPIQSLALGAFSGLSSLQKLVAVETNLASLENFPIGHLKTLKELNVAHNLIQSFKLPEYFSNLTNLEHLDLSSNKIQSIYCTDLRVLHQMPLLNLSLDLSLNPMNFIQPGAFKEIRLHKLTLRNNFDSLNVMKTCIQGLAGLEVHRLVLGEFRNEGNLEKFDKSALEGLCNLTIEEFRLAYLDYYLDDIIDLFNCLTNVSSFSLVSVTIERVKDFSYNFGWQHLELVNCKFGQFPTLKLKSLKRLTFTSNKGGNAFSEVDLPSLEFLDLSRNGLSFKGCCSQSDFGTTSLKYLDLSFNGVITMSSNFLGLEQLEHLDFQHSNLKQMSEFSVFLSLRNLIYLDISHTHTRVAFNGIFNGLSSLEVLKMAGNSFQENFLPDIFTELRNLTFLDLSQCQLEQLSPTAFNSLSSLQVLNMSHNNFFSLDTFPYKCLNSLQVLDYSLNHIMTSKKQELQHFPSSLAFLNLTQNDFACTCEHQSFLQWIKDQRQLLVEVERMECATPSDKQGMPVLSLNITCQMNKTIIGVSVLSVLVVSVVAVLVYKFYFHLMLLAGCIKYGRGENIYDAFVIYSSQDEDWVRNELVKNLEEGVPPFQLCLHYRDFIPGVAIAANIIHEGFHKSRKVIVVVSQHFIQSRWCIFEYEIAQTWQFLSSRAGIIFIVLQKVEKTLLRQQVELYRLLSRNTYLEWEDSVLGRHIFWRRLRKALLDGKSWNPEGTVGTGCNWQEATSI

B1: recombinant pancreatic adenocarcinoma up-regulated factor (PAUF) (ligand, UniProt Q96DA0 17-172, looked up)
chain: GKMYGPGGGKYFSTTEDYDHEITGLRVSVGLLLVKSVQVKLGDSWDVKLGALGGNTQEVTLQPGEYITKVFVAFQAFLRGMVMYTSKDRYFYFGKLDGQISSAYPSQEGQVLVGIYGQYQLLGIKSIGFEWNYPLEEPTTEPPVNLTYSANSPVGR
NF-κB dual-luciferase reporter activity in Panc-1 cells transiently overexpressing TLR4 (rPAUF 0.1 µg/mL), relative to Panc-1_trans Ctrl cells; no effect of rPAUF in control cells: 4.6 fold

Source: paper PMC9570212, “PAUF Induces Migration of Human Pancreatic Cancer Cells Exclusively via the TLR4/MyD88/NF-κB Signaling Pathway” (International Journal of Molecular Sciences, 2022)
